Data: article PMC8263732, “M1BP cooperates with CP190 to activate transcription at TAD borders and promote chromatin insulator activity” (Nature Communications, 2021)

T1: Modifier of mdg4 [Mod(mdg4)] 67.2 kDa isoform [Mod(mdg4)67.2] (Drosophila (endogenous in 0-24 h Oregon …, UniProt Q86B87 1-610))
T1 construct: Modifier of mdg4, the 67.2 kDa isoform, Drosophila; The gene has many isoforms; the 67.2 kDa isoform is meant; to be checked; source: endogenous, nuclear extract of 0-24 h Drosophila embryos
T1 sequence (looked up): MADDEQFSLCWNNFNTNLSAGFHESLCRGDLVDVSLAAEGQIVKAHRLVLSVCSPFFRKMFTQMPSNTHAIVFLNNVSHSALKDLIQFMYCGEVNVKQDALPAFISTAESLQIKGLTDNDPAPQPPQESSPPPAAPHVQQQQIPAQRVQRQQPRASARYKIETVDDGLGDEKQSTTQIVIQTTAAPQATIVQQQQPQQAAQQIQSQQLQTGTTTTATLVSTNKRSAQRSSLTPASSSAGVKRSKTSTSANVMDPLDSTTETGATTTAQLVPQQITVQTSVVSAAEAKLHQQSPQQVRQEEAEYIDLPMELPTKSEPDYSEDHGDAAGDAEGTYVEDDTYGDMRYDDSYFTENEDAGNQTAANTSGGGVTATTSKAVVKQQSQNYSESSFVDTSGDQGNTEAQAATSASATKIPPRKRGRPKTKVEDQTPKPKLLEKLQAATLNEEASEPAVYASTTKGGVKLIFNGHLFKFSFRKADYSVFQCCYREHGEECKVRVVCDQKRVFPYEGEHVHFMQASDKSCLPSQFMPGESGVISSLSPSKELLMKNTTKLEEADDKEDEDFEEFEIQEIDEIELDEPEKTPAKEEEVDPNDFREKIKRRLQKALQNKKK

T2: Motif 1 Binding Protein (M1BP) (Drosophila (endogenous in 0-24 h Oregon …, UniProt Q9VHM3 1-418))
T2 construct: endogenous protein in embryonic nuclear extract; source: endogenous, nuclear extract of 0-24 h Drosophila embryos
T2 sequence (looked up): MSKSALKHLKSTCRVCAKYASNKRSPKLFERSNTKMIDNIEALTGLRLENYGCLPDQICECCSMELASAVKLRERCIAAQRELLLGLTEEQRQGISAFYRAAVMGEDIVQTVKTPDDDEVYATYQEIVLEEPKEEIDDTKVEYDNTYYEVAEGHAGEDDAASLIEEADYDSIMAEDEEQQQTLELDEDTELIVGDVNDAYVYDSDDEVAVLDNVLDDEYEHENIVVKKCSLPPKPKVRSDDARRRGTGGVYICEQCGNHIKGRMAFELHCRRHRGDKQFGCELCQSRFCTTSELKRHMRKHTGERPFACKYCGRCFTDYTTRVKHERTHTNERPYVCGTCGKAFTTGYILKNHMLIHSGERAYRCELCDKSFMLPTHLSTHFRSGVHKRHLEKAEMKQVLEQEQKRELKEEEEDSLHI

B1: Suppressor of Hairy wing [Su(Hw)] (natural protein, UniProt P08970 1-941, looked up)
chain: MSASKEGKEKKGKLLGVENISPPKDKRPATRMKLLNDVGAGEDSEASTTTTTSRTPSNKQEKRGSVAGSRIKILNEEILGTPKTEKRGATKSTAPAASTVKILNEKKTPSATVTAVETTKIKTSPSKRKKMEHYVLQAVKSENTKADTTVTVVTEEDDTIDFILADDEEVVPGRIENNNGQEIVVTEDDEDLGEDGDEDGEDSSGKGNSSQTKIKEIVEHVCGKCYKTFRRVQSLKKHLEFCRYDSGYHLRKADMLKNLEKIEKDAVVMEKKDICFCCSESYDTFHLGHINCPDCPKSFKTQTSYERHIFITHSEFSDFPCSICNANLRSEALLALHEEQHKSRGKPYACKICGKDFTRSYHLKRHQKYSSCSSNETDTMSCKVCDRVFYRLDNLRSHLKQHLGTQVVKKPEYMCHTCKNCFYSLSTLNIHIRTHTGEKPFDCDLCDKKFSALVALKKHRRYHTGEKPYSCTVCNQAFAVKEVLNRHMKRHTGERPHKCDECGKSFIQATQLRTHSKTHIRPFPCEQCDEKFKTEKQLERHVKTHSRTKRPVFSCAECKRNFRTPALLKEHMDEGKHSPKQQRSSMRSAVKIMERTDCAICDKNFDSSDTLRRHIRTVHECDPDDIFGVEPHPSKRAKKDIESEEVVPVALNTSAGSLISSQTDGNGVVVREFLVDEGDGAAQTITLENETYTILPLDGAIEGEQLTDEAGVKPEAKKEEAQVSPVVKKEQRKSLAASLAAAIADNLEESCSEDDFSGEILTEEDIKLKENVGKLIDMLVDPPILKKYGWPNAPEETVLCKVIENCGHDLTKGGENYAELDYGSRMREYCKLLFTVVIHNDSIKSLLNNFPIDDVIEYVLGDEDQDEGGLDKDNESHSGDEEAVSVTGETKTNEIREKPEKKEVSAKSEKKEIVGKAVDKDNSEEVVRENKKKPVGEQEKA
notes: endogenous protein in embryonic nuclear extract; source: endogenous, nuclear extract of 0-24 h Drosophila embryos
B2: Centrosomal protein 190 (CP190) (natural protein, UniProt Q24478 1-1096, looked up)
chain: MGEVKSVKVDNWGVFFLQKLQNFFNKTDYCDLTLQFRDNSQLKVHRLVLSACTDYFNVLEQTCEIVDDALIMPNEFQADVVVPIVNFMYTGTLEFELKMYGKLLRTAKEMNMTVLLKLLEAHRRTMENVNRQQRPPSPKGIRRRTVGQPSSGLPQQRVLGPSPQSRNVATPIAQRANTQRGSTGNTMSRTSGGSNRSPYGDSSNVKQEPTSPFEQLRKGYNNNKRPAQTSLLSPPSKKPSLEEVKEFAEQQRMRKQIAAEYGDNDPEYDGGMLYDDVHAGDDDDDDMPPQPSTSKQQSPQGTQTQLEHGSTTIILKQDSPSQTPTIIVKDSSNAKLNHTKIIAEVLRQYPHIVKGHKNIKLKIMPNTPAAPTEKSAPATVKPPANQSSATTSPHKKLHVSFKADKSTPLITAQQKAASSQQKSGTSQTTGNQGTGANPPANTAAAQKRRIDSKTMHALIAQGAENTTGPWLCLRCGVNGRPISIPSYRGFRRHLINTHKETIDPALCEHCGWRSVNNRELHFHMYMEHQTKSLLYTFAECALCNQSYRTKGELEAHINEVHTDDNKQQCIYCNKVFEQELQLYRHMKSYHKEQALEDGIIDETDEEFLGSQDEEEEAEGDEEQEPEQTGKVRILSDISLPATSAITVQQAQQEQLQEEDVEQVQQEVKFVGADGNEVELTDEQRKEILSQLNQQQAGATAGGVVMVLSEPEAEHVKQETDEKSLAGTEEEYDDSQIYSELGAADSVESAKKNIADESKESIDNLEWAENLIAESEEQSNKEPKSDKPRDDISEKLKELTGDWTEDENDDDVDDKPATAELASELANKDPEPTVHEEEDDIDLALQSLHKGPEEATEEKASEESVTSADDAVDAVPNINSQPEKMDVDSEAADEKASKAEVQIKKEAELENDQEEFIKEDSPIPHSDSVAELREAVTASEGEDDVHLEADNIRKELLDELIAEAEKPDQEKDIVQSEENATTEALDRSVTDEDDLVPPTQVSTEQMEIDEPAAEKAAENNEDTRTADEKEAVEDKPNQTQDVTTAEKPTLESAKAGDEATSGEAASVDKVKSLISEWGDDDEDEDENGVSAAAKEEL
notes: Centrosomal protein 190 (CP190), universal insulator protein of Drosophila; endogenous protein in embryonic nuclear extract; source: endogenous, nuclear extract of 0-24 h Drosophila embryos

Assays:
Test in all cases: co-IP; 500 ug nuclear extract of 0-24 h Drosophila embryos incubated overnight at 4 C with antiserum (anti-Su(Hw), anti-CP190, anti-Mod(mdg4)67.2 or anti-M1BP; normal serum as control) cross-linked to Protein A or G Sepharose; washed twice with HBSMT and once with HBSM; western blotting; efficiency as percent of total input protein
Settings in all cases: partners not purified
[1] = biological target: T1, Modifier of mdg4 [Mod(mdg4)] 67.2 kDa …
[2] = biological target: T2, Motif 1 Binding Protein (M1BP)
[3] = biological target: B2
[4] = biological target: B1

Row | Binder | percent of total protein immunoprecipitated with anti-Mod(mdg4)67.2 [1] | percent of total protein immunoprecipitated with anti-M1BP [2] | percent of total protein immunoprecipitated with anti-CP190 [3] | percent of total protein immunoprecipitated with anti-Su(Hw) [4]
1 | B1 | 8.5% | 2.6% | 7% | –
2 | B2 | 11% | 3.8% | – | 5.2%
